Measurements from patent US20130177979A1, “METHODS AND COMPOSITIONS FOR CELL PERMEABLE STAT3 INHIBITOR” (University of Central Florida Research Foundation, Inc., priority 2010, published 2013).

Key:
PpYLKTK (pY705 Stat3) = target: T1, PpYLKTK (pY705 Stat3) (Homo sapiens, UniProt P40763); experiment: SPR binding to Stat3-derived pTyr705 peptide PpYLKTK; conditions: immobilized on sensor chip, PpYLKTK as analyte
T1 construct: the Stat3-derived pTyr705 peptide, PpYLKTK
Method: (§1) Association and dissociation measurements were taken and the affinities were determined using Qdat software.
(§2) Surface plasmon resonance analysis. […] Various concentrations of pTyr peptides (analyte) in running buffer (1×PBS, 0.5% DMSO) were passed over the sensor chip to produce response signals. The response signals were referenced by subtracting the response generated by passing across a surface without the analytes. The association and dissociation rate constants were calculated using the Qdat software. The ratio of the association and dissociation rate constants was determined as the affinity (KD).

PEpYINQS (pY1068EGFR) = target: T2, PEpYINQS (pY1068EGFR) (Homo sapiens, UniProt P00533); experiment: SPR binding to EGFR pY1068 peptide PEpYINQS; conditions: immobilized on sensor chip, PEpYINQS as analyte
T2 construct: the pY1068 of EGFR, PEpYINQS
Method: as §1, §2

PVpYHNQP (pY1086EGFR) = target: T3, PVpYHNQP (pY1086EGFR) (Homo sapiens, UniProt P00533); experiment: SPR binding to EGFR pY1086 peptide PVpYHNQP; conditions: immobilized on sensor chip, PVpYHNQP as analyte
T3 construct: the pY1086 peptide of EGFR, PVpYHNQP
Method: as §1, §2

GpYIKTE (pY701Stat1) = target: T4, GpYIKTE (pY701Stat1) (Homo sapiens, UniProt P42224); experiment: SPR binding to Stat1 pY701 peptide GpYIKTE; conditions: immobilized on sensor chip, GpYIKTE as analyte
T4 construct: the Stat1 pY701 peptide, GpYIKTE
Method: as §1, §2

GpYVKPQ (pY694Stat5) = target: T5, GpYVKPQ (pY694Stat5) (Homo sapiens, UniProt P42229); experiment: SPR binding to Stat5 pTyr peptide GpYVKPQ; conditions: immobilized on sensor chip, GpYVKPQ as analyte
T5 construct: the pTyr peptide of Stat5, GpYVKPQ
Method: as §1, §2

GpYLPQTV (IL-6R/gp130) = GpYLPQTV (IL-6R/gp130) (Homo sapiens, UniProt P40189, S904G); conditions: SPR; SPI, Stat3 SH2 domain or Stat3 immobilized on sensor chip, GpYLPQTV as analyte
Method: as §1, §2

Substance	Kd (PpYLKTK (pY705 Stat3))	Kd (PEpYINQS (pY1068EGFR))	Kd (PVpYHNQP (pY1086EGFR))	Kd (GpYIKTE (pY701Stat1))	Kd (GpYVKPQ (pY694Stat5))	Kd (GpYLPQTV (IL-6R/gp130))
Stat3 SH2 domain: Purified His-tagged Stat3 SH2 domain, recombinant protein expressed in BL21(DE3) cells (FISKERERAILSTKPPGTFLLRFSESSK)	1.6 µM	0.4 µM	2.6 µM	6.6 µM	5200 µM	0.03 µM
full-length Stat3: Purified His-tagged Stat3 protein, recombinant, expressed in BL21(DE3) cells	0.9 µM	–	–	4.4 µM	1200 µM	0.02 µM
